According to patent US20240025978A1 (BIOVERATIV USA, published 2024):

Biological target: T1, activated human complement C1s (Homo sapiens, UniProt P09871 16-688)
T1 sequence: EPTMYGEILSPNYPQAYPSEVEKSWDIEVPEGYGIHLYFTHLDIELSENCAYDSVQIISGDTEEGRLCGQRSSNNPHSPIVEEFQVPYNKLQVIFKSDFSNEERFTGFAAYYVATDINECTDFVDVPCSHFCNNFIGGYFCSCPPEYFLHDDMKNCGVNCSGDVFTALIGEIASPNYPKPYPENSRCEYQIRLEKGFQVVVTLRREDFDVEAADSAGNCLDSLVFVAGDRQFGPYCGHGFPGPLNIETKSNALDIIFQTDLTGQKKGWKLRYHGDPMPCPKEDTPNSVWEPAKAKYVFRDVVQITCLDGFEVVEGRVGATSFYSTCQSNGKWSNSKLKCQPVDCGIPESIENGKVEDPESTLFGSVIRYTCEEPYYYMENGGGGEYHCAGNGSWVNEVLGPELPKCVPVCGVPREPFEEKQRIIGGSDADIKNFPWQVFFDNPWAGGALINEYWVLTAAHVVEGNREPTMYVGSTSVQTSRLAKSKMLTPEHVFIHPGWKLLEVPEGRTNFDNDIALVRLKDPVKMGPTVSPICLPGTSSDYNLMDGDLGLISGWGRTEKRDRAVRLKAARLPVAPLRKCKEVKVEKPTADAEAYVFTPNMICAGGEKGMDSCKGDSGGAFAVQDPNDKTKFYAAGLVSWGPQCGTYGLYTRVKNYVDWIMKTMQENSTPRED
Assay: cell-based or functional assay

percent CP (Wieslab classical pathway assay), population PK/PD model, typical IC50: 96.4 µg/mL
B1: SAR445088 (antibody, human IgG4 S228P, kappa, V domains shown)
VH: QVQLVQSGAEVKKPGASVKLSCTASGFNIKDDYIHWVKQAPGQGLEWIGRIDPADGHTKYAPKFQVKVTITADTSTSTAYLELSSLRSEDTAVYYCARYGYGREVFDYWGQGTTVTVSS
VL: DIVLTQSPDSLAVSLGERATISCKASQSVDYDGDSYMNWYQQKPGQPPKILIYDASNLESGIPARFSGSGSGTDFTLTISSLEPEDFAIYYCQQSNEDPWTFGGGTKVEIKR
CH50 (50% hemolytic complement activity, liposome-based assay), population PK/PD model, typical IC50: 16.6 µg/mL
